{
  "source": "paper PMC2975657",
  "key": {"[1]": {"molecular_target": "protective antigen, proteolytically activated 63-kDa portion (PA63) (Bacillus anthracis)", "test": "native MS"}, "[2]": {"molecular_target": "Lethal factor LFN (Bacillus anthracis) (UniProt P15917)", "conditions": "cited from earlier work"}, "[3]": {"molecular_target": "protective antigen, proteolytically activated 63-kDa portion (PA63) (Bacillus anthracis)", "test": "negative-stain electron microscopy"}, "[4]": {"molecular_target": "PA7(LFN)3 complex (heptameric PA oligomer with three LFN) (Bacillus anthracis)"}, "[5]": {"molecular_target": "PA8(LFN)4 complex (octameric PA oligomer with four LFN) (Bacillus anthracis)"}, "[6]": {"molecular_target": "PA7(LFN)3 complex (heptameric PA oligomer with three LFN) (Bacillus anthracis)", "test": "native MS"}, "[7]": {"molecular_target": "PA8(LFN)4 complex (octameric PA oligomer with four LFN) (Bacillus anthracis)", "test": "native MS"}},
  "note": "Values joined by “and” are separate entries in the source; they are usually repeats but may differ in a detail not shown here. Equal entries are not always repeated.",
  "data": [
    {"substance": "LF's PA binding domain (LFN, the first 263 residues of LF) (domain or fragment)", "values": [
      {"measurement": "stoichiometry N (LFN per PA2 intermediate)", "setting": "[1]", "result": 1},
      {"measurement": "stoichiometry N (LFN per PA4 intermediate)", "setting": "[1]", "result": 2},
      {"measurement": "stoichiometry N (LFN per PA7 oligomer)", "setting": "[1]", "result": 3},
      {"measurement": "stoichiometry N (LFN per PA8 oligomer)", "setting": "[1]", "result": 4}
    ]},
    {"substance": "Protective antigen (from UniProt P13423)", "values": [
      {"measurement": "Kd", "setting": "[2]", "result": 1, "unit": "nM"}
    ]},
    {"substance": "protective antigen, proteolytically activated 63-kDa portion (PA63) (domain or fragment)", "values": [
      {"measurement": "stoichiometry N", "setting": "[1]", "result": "4 and 2"},
      {"measurement": "stoichiometry N (PA63 per oligomer)", "setting": "[1]", "result": "8 and 7"},
      {"measurement": "stoichiometry N (PA63 per oligomer)", "setting": "[3]", "result": "7 and 8"}
    ]},
    {"substance": "soluble monomeric ANTXR2 extracellular domain (msANTXR2), capillary morphogenesis protein 2 residues 40-217 (from UniProt P58335 40-217) (receptor)", "values": [
      {"measurement": "pH midpoint of the prechannel-to-channel transition, CD signal at 222 nm, 37°C", "setting": "[4]", "result": 5.8, "unit": "pH"},
      {"measurement": "pH midpoint of the prechannel-to-channel transition, CD signal at 222 nm, 37°C", "setting": "[5]", "result": 5.8, "unit": "pH"},
      {"measurement": "stoichiometry N (msANTXR2 per PA7(LFN)3 complex)", "setting": "[6]", "result": 7},
      {"measurement": "stoichiometry N (msANTXR2 per PA8(LFN)4 complex)", "setting": "[7]", "result": 8}
    ]}
  ]
}
